These results are taken from patent publication US20080292620A1 (Novartis, published 2008).

Assay [1] addresses T1, murine PRLR ECD (mouse, UniProt Q08501 20-229).
T1 construct: extracellular domain; also called Mouse PRLR
T1 sequence (looked up): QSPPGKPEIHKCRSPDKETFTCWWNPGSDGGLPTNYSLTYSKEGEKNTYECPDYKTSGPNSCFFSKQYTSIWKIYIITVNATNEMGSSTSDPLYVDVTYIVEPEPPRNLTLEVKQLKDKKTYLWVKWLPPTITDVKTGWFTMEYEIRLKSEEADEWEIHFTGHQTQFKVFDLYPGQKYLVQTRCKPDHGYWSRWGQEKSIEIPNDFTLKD
In words: Biacore SPR, antibody covalently immobilized on CM4 chip, PRLR ECD 111 to 1.37 nM; same run as N2: antibody covalently immobilized on CM4, PRLR ECD 111 to 1.37 nM; very weak fitted binding. On the procedure:
(§1) In order to compare rat and mouse cross reactivity using covalently immobilized antibodies, a CM4 chip was coupled with he.06.642-2 and he.06.275-4 antibodies via standard EDC-NHS amine coupling chemistries according to the recommended protocol from Biacore® Inc. The PRLR ECD injections were performed at five concentrations in a three fold titration series starting at 111 nM and going down to 1.37 nM. Regeneration was performed with Glycine pH3.0. The affinity of all of the HE variants of XHA.06.642 and XHA.06.275 are very similar to the affinity of the parental chimeric antibody. Antibody he.06.642-2 binds to human, mouse and rat PRLR with equivalent affinity.

Assay [2] deals with T2, recombinant extracellular domain (ECD) of the human prolactin receptor (PRLR) (human, UniProt P16471 25-234).
T2 construct: also called PRLR ECD; Human PRLR; not shown: His tag
T2 sequence: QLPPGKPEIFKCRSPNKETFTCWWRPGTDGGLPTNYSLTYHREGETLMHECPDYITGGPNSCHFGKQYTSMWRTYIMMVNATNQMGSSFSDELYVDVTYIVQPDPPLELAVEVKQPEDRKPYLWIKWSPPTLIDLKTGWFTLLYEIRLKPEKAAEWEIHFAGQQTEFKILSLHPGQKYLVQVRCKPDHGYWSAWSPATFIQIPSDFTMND
In words: Biacore SPR, antibody covalently immobilized on CM4 chip, PRLR ECD 111 to 1.37 nM.

For assay [3], the target named is T3, cynomolgus PRLR ECD (cynomolgus, UniProt A0A2K5WXK1 25-234).
T3 construct: extracellular domain; also called Cyno PRLR
T3 sequence: T2 sequence with I76V, A110T, I125M, I158T, T207I
Described as above.

The next assay concerns the target T4, rat PRLR ECD (rat, UniProt P05710 20-229).
T4 construct: extracellular domain
T4 sequence (looked up): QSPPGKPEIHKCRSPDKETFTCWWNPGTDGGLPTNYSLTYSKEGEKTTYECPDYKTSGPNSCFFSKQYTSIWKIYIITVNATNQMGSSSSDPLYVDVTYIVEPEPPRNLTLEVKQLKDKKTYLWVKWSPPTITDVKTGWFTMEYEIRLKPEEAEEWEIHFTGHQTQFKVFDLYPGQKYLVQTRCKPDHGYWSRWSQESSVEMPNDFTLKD
In words: Biacore SPR, antibody covalently immobilized on CM4 chip. On the procedure:
as §1

The target in assay [4] is T1, murine PRLR ECD. In words: Biacore SPR, antibody covalently immobilized on CM4 chip, PRLR ECD 111 to 1.37 nM; same run as N2: KD about 17.6 uM, far above the top concentration of 111 nM, which the text calls not binding effectively. On the procedure:
as §1

For assay [5], the target named is T2, recombinant extracellular domain (ECD) …. In words: Biacore SPR, antibody captured on Protein A/G, kinetic titration of PRLR ECD, 1:1 Langmuir. On the procedure: (§2) Affinity of the chimerized and Human Engineered™ antibodies determined by Biacore analysis. Briefly, a CM5 sensor chip (Biacore) immobilized with Protein A/G (Pierce) via NHS/EDC was used to capture approximately 600 RU of antibody on the chip surface. Five concentrations of PRLR ECD beginning at 5 ug/mL (185 nM) and serially diluted at 5× dilution to 0.3 nM were injected from lowest to highest concentration in the kinetic titration injection mode, and 15 minutes of dissociation data was collected. The experiments were double-referenced, i.e. an adjacent flow cell response was subtracted automatically, and the response from a buffer injection experiment was subtracted from the experimental data set. Kinetic and derived parameters (kₐ, kd and KD) were determined by fitting to a 1:1 Langmuir model using BiaEval software customized to the kinetic titration injection mode. Affinity measurements of both chimeric and all Human Engineered™ antibodies against human and cynomolgus PRLR ECD are summarized in Table 9 and Table 10.

In assay [6] the target is T3, cynomolgus PRLR ECD. The description is as above. On the procedure:
as §2

Residue numbers refer to the chain shown, from its start.

B1: he.06.275-4 (antibody, V domains shown)
VH: QVQLQESGPGLVKPSQTLSLTCTVSGYSITSDYAWNWIRQFPGKGLEWMGYISYSGSTSYNPSLKSRITISRDTSKNQFSLQLNSVTAADTAVYFCARDYGYVFDYWGQGTTLTVSS
VL: DVQITQSPSSLSASPGDRITLTCRASKNIYKYLAWYQEKPGKANKLLIYSGSTLHSGIPSRFSGSGSGTDFTLTISSLQPEDFAMYYCQQHNDYPYTFGQGTKLEIK
notes: Human Engineered
The molecule B1 displayed a koff with murine PRLR ECD [1] of 0.037 s⁻¹. This molecule also gave a kon with murine PRLR ECD [1] of 2100 M⁻¹ s⁻¹. For the same molecule, the Kd in assay [2] was 1.3 nM; with cynomolgus PRLR ECD [3], 6.4 nM; with murine PRLR ECD [4], 17600 nM; in assay [5], 0.52 nM; in the assay with cynomolgus PRLR ECD [6], 1.7 nM. In the assay with rat PRLR ECD, the binding result is recorded as “no binding (tested: PRLR ECD up to 111 nM)”.
